# Patent US12714676B2, “Compositions and methods for targeted delivery of therapeutics using carriers” (VESSELON, INC., priority 2020, dated 2026)
# Legend:
# [1] = HT29 xenograft, bevacizumab-awwb concentration in excised tumors (HPLC); type: in vivo, athymic nude mice; settings: Day 3
# Experimental: A non-GLP study was conducted (Metis Labs, Ronkonkoma, NY, USA) using Imagent microbubbles, a human monoclonal antibody and ultrasound with a TE7 and P4-2S probe (Mindray North America, New Jersey, USA); settings used were 2.2 MHz frequency, 0.35 and 0.70 mechanical indexes (MI) during insonation, once every 10 seconds, a microbubble destruct pulse of 1.3 MI lasting 1,100 milliseconds was applied. Total insonation time of 5 minutes per animal was used. Imagent was conjugated with bevacizumab-awwb (Mvasi®, Amgen, Thousand Oaks, CA, USA) (“eBev”) in HT29 human colorectal carcinoma model.
# Thirty-six athymic nude mice (The Jackson Laboratory, Bar Harbor, ME, USA) were randomized into 9 groups of 4 mice and once tumor volumes reached ~200 mm^3, the mice were treated once on day 1. Animals were euthanized on Day 3. The bevacizumab-awwb (either eBev or free bevacizumab-awwb) dose was 100 μL of either a 25:1, 50:1, or 5:1 dilution, depending on the experimental arm, via intravenous administration (i.v.) via jugular vein catheter (Instech One Channel Mouse Button, Instech, Plymouth Meeting, PA, USA). […]
# [2] = patients, package insert; cited from earlier work
# [3] = cited from earlier work
# [4] = in the human body; cited from earlier work
molecule,measurement,setting,value
"bevacizumab-awwb: bevacizumab-awwb (Mvasi, Amgen), human monoclonal antibody",mean concentration of bevacizumab-awwb as measured in the tumors,"[1]; Group 2: free bevacizumab-awwb only, 25:1 dilution, i.v.",around 3 μg
same,mean concentration of bevacizumab-awwb as measured in the tumors,[1]; Groups 3a-3d: free bevacizumab-awwb 25:1 co-administered with Imagent microbubbles + ultrasound,around 3 μg
"Avastin: recombinant humanized monoclonal IgG1 antibody, vascular endothelial growth factor inhibitor",Grade 3-5 hemorrhagic events,[2],0.4-7.0%
same,Grades 3-4 hypertension,[2],5-18%
same,Grades 3-5 Arterial Thromboembolic Events,[2],5%
same,gastrointestinal perforations,[2],0.3-3.0%
same,ovarian failure,[2],34%
same,proteinuria,[2],20%
FC(F)(F)C(F)(F)C(F)(F)C(F)(F)C(F)(F)C(F)(F)F [Perfluorohexane],"water solubility, times lower than octafluoropropane",[3],704 times
same,"water solubility, times lower than sulfur hexafluoride",[3],"1,000 times"
O=C1[O][Pt]2([NH][C@@H]3CCCC[C@H]3[NH]2)[O]C1=O [Oxaliplatin],half-life,[4],about 14 minutes
